According to PMC7718890, “High-throughput screening to discover inhibitors of the CarD·RNA polymerase protein–protein interaction in Mycobacterium tuberculosis” (Scientific Reports, 2020):

Molecular target: Mycobacterium tuberculosis RNA polymerase, wild type (Mycobacterium tuberculosis) (UniProt P9WGY9)
Assay: FP

Substance: CarD T24C labelled with BODIPY-FL
- Kd: 56 nM
